Reference: paper PMC4858292, “Determination of the CD148-Interacting Region in Thrombospondin-1” (PLoS ONE, 2016)

B1: Trimeric TSP1 fragment, oligomerization domain + procollagen + 1^st & 2^nd type 1 repeats (aa 261–490) (domain or fragment, human, UniProt P07996 261-490, looked up)
chain: HKTKDLQAICGISCDELSSMVLELRGLRTIVTTLQDSIRKVTEENKELANELRRPPLCYHNGVQYRNNEEWTVDSCTECHCQNSVTICKKVSCPIMPCSNATVPDGECCPRCWPSDSADDGWSPWSEWTSCSTSCGNGIQQRGRSCDSLNNRCEGSSVQTRTCHIQECDKRFKQDGGWSHWSPWSSCSVTCGDGVITRIRLCNSPSPQMNGKPCEGEARETKACKKDACP
notes: thrombospondin-1 (TSP1), human, oligomerization domain + procollagen + 1st and 2nd type 1 repeats, aa 261-490; Subcloned into HindIII and XbaI sites of the APtag-5 vector; source: HEK293E suspension culture, transient transfection, purified from culture supernatant (HisTrap Excel); not shown: Myc, C-terminal, kept
B2: Trimeric TSP1 fragment, oligomerization domain + procollagen (aa 261–373) (domain or fragment, human, UniProt P07996 261-373, looked up)
chain: HKTKDLQAICGISCDELSSMVLELRGLRTIVTTLQDSIRKVTEENKELANELRRPPLCYHNGVQYRNNEEWTVDSCTECHCQNSVTICKKVSCPIMPCSNATVPDGECCPRCW
notes: thrombospondin-1 (TSP1), human, oligomerization domain + procollagen, aa 261-373; Subcloned into HindIII and XbaI sites of the APtag-5 vector; also called trimeric TSP1 fragment containing the procollagen domain alone; source: HEK293E suspension culture, transient transfection, purified from culture supernatant (HisTrap Excel); not shown: Myc, C-terminal, kept
B3: Trimeric TSP1 fragment, oligomerization domain + procollagen and 1^st type 1 repeat (aa 261–429) (domain or fragment, human, UniProt P07996 261-429, looked up)
chain: HKTKDLQAICGISCDELSSMVLELRGLRTIVTTLQDSIRKVTEENKELANELRRPPLCYHNGVQYRNNEEWTVDSCTECHCQNSVTICKKVSCPIMPCSNATVPDGECCPRCWPSDSADDGWSPWSEWTSCSTSCGNGIQQRGRSCDSLNNRCEGSSVQTRTCHIQECD
notes: thrombospondin-1 (TSP1), human, oligomerization domain + procollagen + 1st type 1 repeat, aa 261-429; Subcloned into HindIII and XbaI sites of the APtag-5 vector; also called trimeric TSP1 fragment containing the procollagen domain and the 1st type 1 repeat; source: HEK293E suspension culture, transient transfection, purified from culture supernatant (HisTrap Excel); not shown: Myc, C-terminal, …
B4: Trimeric TSP1 fragment, oligomerization domain + procollagen + type 1 repeats (aa 261–547) (domain or fragment, human, UniProt P07996 261-547, looked up)
chain: HKTKDLQAICGISCDELSSMVLELRGLRTIVTTLQDSIRKVTEENKELANELRRPPLCYHNGVQYRNNEEWTVDSCTECHCQNSVTICKKVSCPIMPCSNATVPDGECCPRCWPSDSADDGWSPWSEWTSCSTSCGNGIQQRGRSCDSLNNRCEGSSVQTRTCHIQECDKRFKQDGGWSHWSPWSSCSVTCGDGVITRIRLCNSPSPQMNGKPCEGEARETKACKKDACPINGGWGPWSPWDICSVTCGGGVQKRSRLCNNPTPQFGGKDCVGDVTENQICNKQDCP
notes: Subcloned into HindIII and XbaI sites of the APtag-5 vector; also called trimeric TSP1 fragment containing the procollagen domain and type 1 repeats; trimeric TSP1 fragment that contains all three type 1 repeats; source: HEK293E suspension culture, transient transfection, purified from culture supernatant (HisTrap Excel); not shown: Myc, C-terminal, kept

Biological target: the molecule itself
Experiment: SDS-PAGE in non-reducing and reducing conditions; purified fragments separated in non-reducing and reducing (50 mM DTT) conditions; colloidal blue stain and anti-Myc immunoblot

Stoichiometry N, 3:
B1
B2
B3
B4
